What was measured:
[1] = molecular target: T1, Recombinant human IGFBP3 (human, UniProt P17936 28-291); assay: Octet BLI; mAb captured via Fc on anti-mouse/anti-human IgG Fc biosensor, human IGFBP3 at 150 nM
T1 construct: also called rhIGFBP3; hIGFBP3
Description: The binding affinity measurements were performed using an Octet instrument (Octet BMIA), which is a Biolayer Interferometry (BLI) platform based on Biomolecular Interaction Analysis.

[2] = molecular target: T1, Recombinant human IGFBP3; assay: ELISA: plate coated with rhIGFBP3 4 µg/ml, His-tagged ecto-TMEM219 10 µg/ml added, detection with anti-HisTag HRP, absorbance
Description: We also employed a blocking reagent solution (3% BSA in PBS) and a diluent solution (0.5% BSA, 0.05% Tw in PBS).
Plate was incubated 90 minutes at 37° C. and washed with PBS (300 μl/well) and incubated with the blocking reagent (200 μl/well) 2 hours at room temperature. […] After washing steps, plate was then incubated at room temperature for 1 hour with anti 6× His tag HRP diluted 1:2000 in Diluent solution (50 μl/well). ELISA plate was then read after adding visualization solution at ELISAreader and adsorbance was measured.

T1 sequence (P17936 28-291 limits assumed): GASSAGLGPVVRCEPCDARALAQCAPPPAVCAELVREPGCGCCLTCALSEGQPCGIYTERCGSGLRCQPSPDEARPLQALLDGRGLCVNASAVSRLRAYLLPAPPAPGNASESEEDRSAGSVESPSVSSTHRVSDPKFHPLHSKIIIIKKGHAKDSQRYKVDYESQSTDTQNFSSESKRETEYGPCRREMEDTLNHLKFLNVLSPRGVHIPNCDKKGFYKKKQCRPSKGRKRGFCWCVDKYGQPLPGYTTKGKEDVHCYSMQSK

| Binder | Kd [1] [nM] | binding result [2] |
| --- | --- | --- |
| M1 (antibody, V domains shown, Only variable domains are tied to M1; also called anti-IGFBP3 mAb M1; Anti-IGFBP3 M1) VH: QVQLQESGPGLVKPSETLSLTCTVSGGSISTYYWSWIRQPPGKGLEWIGYIYYSGSTNYNPSLKSRVTISVDTSKNQFSLKLSSVTAADTAVYYCARYDIVTGYPHYYYYVMDVWGQGTTVTVSS VL: AIQMTQSPSSLSASVGDRVTITCRASRGIRNALGWYQQKPGTAPKLLIYAASSLQSGVPSRFSGSGSGTDFTLTISSLQPEDSATYYCLQDYNYPLTFGGGTKVEIK | > 0.001 |  |
| E24 (antibody, V domains shown, From Trianni Mouse hybridomas: chimeric mAb with human VH and VK and mouse constant domains; also called anti-IGFBP3 mAb E24) VH: QVQLVQSGAEVKKPGASVKVSCKASGYTFTNYGISWVRQAPGQGLEWMGWINAYNGNTNYAQKLQGRVTMTTVTYTSTAYMELRSLRSDDTAVYYCARDRGYSSSPYYYYYGMDVWGQGTTVTVSS VL: AIQMTQSPSSLSASVGDKVTITCRASQGIRNALGWYQQKPGTAPKLLIYAASSLQSGVPSRFSGSGSGTDFTLTISSLQPEDSATYYCLQDYNYPLTFGGGTKVEIK | > 0.001 |  |
| E01 (antibody, V domains shown, From Trianni Mouse hybridomas: chimeric mAb with human VH and VK and mouse constant domains; also called anti-IGFBP3 mAb E01) VH: QVQLVESGGGVVQPGRSLRLSCAASGFTFSSYGMHWVRQAPGKGLEWVAVISYDGSNKNYVDSVKGRFTISRDNSKNTLYLQMNSLRAEDTAVYYCARGGEYFYYYGLDVWGQGTTVTVSS VL: EIVMTQSPATLSLSPGERATLSCRASQSVSSSSLSWYQQKPGQAPRLLIYGASTRATGIPARFSGSGSGTDFTLTISSLQPEDFAVYYCQQDYNLPLTFGGGTKVEIK | 1.2 |  |
| E02 (antibody, V domains shown, From Trianni Mouse hybridomas: chimeric mAb with human VH and VK and mouse constant domains; also called anti-IGFBP3 mAb E02) VH: QVQLVQSGAEVKKPGASVKVSCKASGYTFSNYGISWVRQAPGQGLEWMGWINTYNGNTNYAQKLQGRVTMTTDTSTSTAYMALRGLRSDDTAVYYCARDRGYSSSPYYYYYGMDVWGQGTTVTVSS VL: EIVMTQSPATLSLSPGERATLSCRASQSVSSSHLSWYQQKPGQAPRLLIYGASTRATGIPARFSGSGSGTDFTLTISSLQPEDFAVYYCQQDYNLTITFGQGTRLEIK | > 0.001 |  |
| Human Ecto-TMEM219 (receptor, Produced in E. coli by Genescript; In the ELISA it was detected with anti 6x His tag HRP, so it probably carries a His tag; also called extracellular domain of the TMEM219 receptor) THRTGLRSPDIPQDWVSFLRSFGQLTLCPRNGTVTGKWRGSHVVGLLTTLNFGDGPDRNKTRTFQATVLGSQMGLKGSSAGQLVLITARVTTERTAGTCLYFSAVPGILPSSQPPISCSEEGAGNATLSPRMGEECVSVWSHEGLVLTKLLTSEELALCGSR |  | binds |

Other lines, results leading:

| Kd [1] [nM] | binding result [2] | Binder |
| --- | --- | --- |
| 0.85 |  | E14 (antibody, V domains shown, From Trianni Mouse hybridomas: chimeric mAb with human VH and VK and mouse constant domains; also called anti-IGFBP3 mAb E14) VH: QVQLVQSGAEVKKPGASVKVSCKASGYTFSNYGISWVRQAPGQGLEWMGWINTYNGNTNYAQKLQGRVTMTTDTSTSTAYMALRGLRSDDTAVYYCARDRGYSSSPYYYYYGMDVWGQGTTVTVSS VL: DIQMTQSPSSLSASIGDRVTITCRASQGISNYLAWFQQKPGKAPKSLIYAASSLQSGVPSKFSGSGSGTDFTLTISSLQPEDFATYYCQQYNSYPFTFGPGTKVDIK |
| 0.85 |  | E20 (antibody, V domains shown, From Trianni Mouse hybridomas: chimeric mAb with human VH and VK and mouse constant domains; also called anti-IGFBP3 mAb E20) VH: QVQLVQSGAEVKKPGASVKVSCKASGYTFSNYGISWVRQAPGQGLEWMGWINTYNGNTNYAQKLQGRVTMTTDTSTSTAYMALRGLRSDDTAVYYCARDRGYSSSPYYYYYGMDVWGQGTTVTVSS VL: DIQMTQSPSSLSASVGDRVTITCRASQGIRNDLGWYQQKPGKAPKRLIYAASSLQSGVPSRFSGSGSGTEFTLTISSLQPEDFATYYCLQHNSYPYTFGQGTKLEIK |
| 0.69 |  | E19 (antibody, V domains shown, From Trianni Mouse hybridomas: chimeric mAb with human VH and VK and mouse constant domains; also called anti-IGFBP3 mAb E19) VH: QVQLVESGGGVVQPGRSLRLSCAASGFTFSSYGMHWVRQAPGKGLEWVAVISYDGSNKNYVDSVKGRFTISRDNSKNTLYLQMNSLRAEDTAVYYCARGGEYFYYYGLDVWGQGTTVTVSS VL: AIQLTQSPSSLSASVGDRVTITCRAGQGISSALAWYQQKPGKAPKILIYDASSLESGVPSRFSGSGSGTDFTLTISSLQPEDFATYYCQQFNNYPSTFGQGTKLEIK |
| 0.61 |  | E08 (antibody, V domains shown, From Trianni Mouse hybridomas: chimeric mAb with human VH and VK and mouse constant domains; also called anti-IGFBP3 mAb E08) VH: QVQLVQSGAEVKKPGASVKVSCKASGYTFSNYGISWVRQAPGQGLEWMGWINTYNGNTNYAQKLQGRVTMTTDTSTSTAYMALRGLRSDDTAVYYCARDRGYSSSPYYYYYGMDVWGQGTTVTVSS VL: EIVMTQSPATLSLSPGERATLSCRASQSVSSSSLSWYQQKPGQAPRLLIYGASTRATGIPARFSGSGSGTDFTLTISSLQPEDFAVYYCQQDYNLPLTFGGGTKVEIK |

From patent publication US20230039165A1 (ENTHERA S R L, published 2023)
